Test results published in publication PMC3985620, “Stepwise assembly of multiple Lin28 proteins on the terminal loop of let-7 miRNA precursors”.
Changes are numbered by the printed parent chain.

Legend:
Lin28 (Lin28A) [1] = target: T1, Lin28 (Lin28A) (Mus musculus (murine), UniProt Q8K3Y3 1-209); experiment: EMSA (stoichiometric); 0.5 µM RNA; EMSA: 50 mM Tris pH 7.6, 50 mM NaCl, 10% glycerol, 0.05% NP-40 alternative, 2 mM DTT, 4°C; 2-AP: 50 mM Tris pH 7.6, 50 mM NaCl, 10% glycerol, 4°C; FRET: EMSA buffer, 30°C; conditions: protein: recombinant, label: 5'-32P
T1 sequence: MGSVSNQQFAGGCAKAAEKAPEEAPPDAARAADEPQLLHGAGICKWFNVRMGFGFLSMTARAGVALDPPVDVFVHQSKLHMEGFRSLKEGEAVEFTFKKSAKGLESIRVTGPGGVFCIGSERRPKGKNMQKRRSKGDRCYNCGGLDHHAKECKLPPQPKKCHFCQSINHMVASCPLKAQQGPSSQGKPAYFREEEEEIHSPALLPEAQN

Lin28 119-180 [2] = target: T2, Lin28 119-180 (Mus musculus (murine), UniProt Q8K3Y3 119-180); experiment: as above; conditions: protein: recombinant, label: 5'-32P
T2 sequence: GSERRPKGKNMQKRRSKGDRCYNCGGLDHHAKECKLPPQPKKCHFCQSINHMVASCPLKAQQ

Lin28 (Lin28A) [3] = target: T1, Lin28 (Lin28A); experiment: EMSA; EMSA: 50 mM Tris pH 7.6, 50 mM NaCl, 10% glycerol, 0.05% NP-40 alternative, 2 mM DTT, 4°C; 2-AP: 50 mM Tris pH 7.6, 50 mM NaCl, 10% glycerol, 4°C; FRET: EMSA buffer, 30°C; conditions: protein: recombinant; label: 5'-32P
Lin28 (Lin28A) [4] = target: T1, Lin28 (Lin28A); experiment: EMSA; Hill n = 2 ± 1; EMSA: 50 mM Tris pH 7.6, 50 mM NaCl, 10% glycerol, 0.05% NP-40 alternative, 2 mM DTT, 4°C; 2-AP: 50 mM Tris pH 7.6, 50 mM NaCl, 10% glycerol, 4°C; FRET: EMSA buffer, 30°C; conditions: protein: recombinant; label: 5'-32P; hairpin
Lin28 119-180 [5] = target: T2, Lin28 119-180; experiment: EMSA; EMSA: 50 mM Tris pH 7.6, 50 mM NaCl, 10% glycerol, 0.05% NP-40 alternative, 2 mM DTT, 4°C; 2-AP: 50 mM Tris pH 7.6, 50 mM NaCl, 10% glycerol, 4°C; FRET: EMSA buffer, 30°C; conditions: protein: recombinant; label: 5'-32P
Lin28 (Lin28A) [6] = target: T1, Lin28 (Lin28A); experiment: EMSA; Hill n = 1.3 ± 0.1; EMSA: 50 mM Tris pH 7.6, 50 mM NaCl, 10% glycerol, 0.05% NP-40 alternative, 2 mM DTT, 4°C; 2-AP: 50 mM Tris pH 7.6, 50 mM NaCl, 10% glycerol, 4°C; FRET: EMSA buffer, 30°C; conditions: protein: recombinant; label: 5'-32P; hairpin
Lin28 (Lin28A) [7] = target: T1, Lin28 (Lin28A); experiment: 2-AP fluorescence; 500 nM RNA (stoichiometric); EMSA: 50 mM Tris pH 7.6, 50 mM NaCl, 10% glycerol, 0.05% NP-40 alternative, 2 mM DTT, 4°C; 2-AP: 50 mM Tris pH 7.6, 50 mM NaCl, 10% glycerol, 4°C; FRET: EMSA buffer, 30°C; conditions: protein: recombinant; label: 2-AP; hairpin
Lin28 (Lin28A) [8] = target: T1, Lin28 (Lin28A); experiment: EMSA; Hill n = 1.46 ± 0.01; EMSA: 50 mM Tris pH 7.6, 50 mM NaCl, 10% glycerol, 0.05% NP-40 alternative, 2 mM DTT, 4°C; 2-AP: 50 mM Tris pH 7.6, 50 mM NaCl, 10% glycerol, 4°C; FRET: EMSA buffer, 30°C; conditions: protein: recombinant; label: 5'-32P; hairpin
Lin28 (Lin28A) [9] = target: T1, Lin28 (Lin28A); experiment: 2-AP fluorescence; 500 nM RNA; second Lin28; EMSA: 50 mM Tris pH 7.6, 50 mM NaCl, 10% glycerol, 0.05% NP-40 alternative, 2 mM DTT, 4°C; 2-AP: 50 mM Tris pH 7.6, 50 mM NaCl, 10% glycerol, 4°C; FRET: EMSA buffer, 30°C; conditions: protein: recombinant; label: 2-AP; hairpin
[10] = target: T3, Lin28 C139A/C161A;Lin28 119-180 (Mus musculus (murine);Mus musculus …, UniProt Q8K3Y3;Q8K3Y3 1-209;119-180, C139A;C161A|); experiment: EMSA (stoichiometric); 1:1:1 and 1:1:2 RNA:P3:P2 complexes; EMSA: 50 mM Tris pH 7.6, 50 mM NaCl, 10% glycerol, 0.05% NP-40 alternative, 2 mM DTT, 4°C; 2-AP: 50 mM Tris pH 7.6, 50 mM NaCl, 10% glycerol, 4°C; FRET: EMSA buffer, 30°C; conditions: protein: recombinant;recombinant; tags: ;; label: 5'-32P; hairpin with 5' G-rich bulge and internal loop
T3 sequence 1: T1 sequence with C139A, C161A
T3 sequence 2: T2 sequence

Lin28 C139A/C161A [11] = target: T4, Lin28 C139A/C161A (Mus musculus (murine), UniProt Q8K3Y3 1-209, C139A;C161A); experiment: EMSA (stoichiometric); 0.5 µM RNA; EMSA: 50 mM Tris pH 7.6, 50 mM NaCl, 10% glycerol, 0.05% NP-40 alternative, 2 mM DTT, 4°C; 2-AP: 50 mM Tris pH 7.6, 50 mM NaCl, 10% glycerol, 4°C; FRET: EMSA buffer, 30°C; conditions: protein: recombinant; label: 5'-32P; hairpin
T4 sequence: T1 sequence with C139A, C161A

Lin28 (Lin28A) [12] = target: T1, Lin28 (Lin28A); experiment: EMSA; 1:1 complex; EMSA: 50 mM Tris pH 7.6, 50 mM NaCl, 10% glycerol, 0.05% NP-40 alternative, 2 mM DTT, 4°C; 2-AP: 50 mM Tris pH 7.6, 50 mM NaCl, 10% glycerol, 4°C; FRET: EMSA buffer, 30°C; conditions: protein: recombinant; label: 5'-32P; hairpin
Lin28 C139A/C161A [13] = target: T4, Lin28 C139A/C161A; experiment: FRET strand displacement; 25 nM RNA, 30°C; ΔFRETmax 0.77; EMSA: 50 mM Tris pH 7.6, 50 mM NaCl, 10% glycerol, 0.05% NP-40 alternative, 2 mM DTT, 4°C; 2-AP: 50 mM Tris pH 7.6, 50 mM NaCl, 10% glycerol, 4°C; FRET: EMSA buffer, 30°C; conditions: protein: recombinant; label: 5'-Cy5 (S1); 5'-Cy3 (S3); blunt, 5-nt G-rich bulge in strand 1
Lin28 (Lin28A) [14] = target: T1, Lin28 (Lin28A); experiment: FRET strand displacement; 25 nM RNA, 30°C; ΔFRETmax 0.84; EMSA: 50 mM Tris pH 7.6, 50 mM NaCl, 10% glycerol, 0.05% NP-40 alternative, 2 mM DTT, 4°C; 2-AP: 50 mM Tris pH 7.6, 50 mM NaCl, 10% glycerol, 4°C; FRET: EMSA buffer, 30°C; conditions: protein: recombinant; label: 5'-Cy5 (S1); 5'-Cy3 (S3); blunt, 5-nt G-rich bulge in strand 1
Lin28 119-180 [15] = target: T2, Lin28 119-180; experiment: FRET strand displacement; 25 nM RNA, 30°C; ΔFRETmax 0.24, binding without displacement; EMSA: 50 mM Tris pH 7.6, 50 mM NaCl, 10% glycerol, 0.05% NP-40 alternative, 2 mM DTT, 4°C; 2-AP: 50 mM Tris pH 7.6, 50 mM NaCl, 10% glycerol, 4°C; FRET: EMSA buffer, 30°C; conditions: protein: recombinant; label: 5'-Cy5 (S1); 5'-Cy3 (S3); blunt, 5-nt G-rich bulge in strand 1
[16] = hairpin with 5' G-rich bulge and internal loop

GCAGAUUUAGGGUCACACCCACCACUGGGAGAUAUCUGCA (structured_RNA) [TL-let-7a-1]: binds (Lin28 (Lin28A) [1]; hairpin); binds (Lin28 119-180 [2]; hairpin).

AUACCACCCGGUAC (ssRNA) [TL19-32]: no binding (Lin28 (Lin28A) [3]).

With GCAGAUGUCUAUGAUACCACCCGGUACAGGAGAUAUCUGCA (structured_RNA) [TL-let-7g Δbulge] the Kd (Lin28 (Lin28A) [4]) was 0.9 ± 0.2 nM.

In the case of AUUGAGGGUCUAUA (ssRNA) [TL5-18], the Kd (Lin28 (Lin28A) [3]) is reported as 1.7 ± 0.4 nM and the binding result (Lin28 119-180 [5]) is reported as “no binding”.

For GGUACAGGAGAUAU (ssRNA) [TL28-41], the Kd (Lin28 (Lin28A) [3]) was 0.29 ± 0.08 nM and the binding result (Lin28 119-180 [5]) was “no binding”.

Binder GCAGAUUGAGGGUCUUGUACCACCCGGUACAAGAUAUCUGCA (structured_RNA) [TL-let-7g Δiloop] has a Kd (Lin28 (Lin28A) [6]) of 0.52 ± 0.09 nM.

For GCAGAUUGAGGGUCUAUGAUACCACCCGGUACAGGAGAUAUCUGCA (structured_RNA, 2-aminopurine at A9) [TL-let-7g 2-AP9], the “apparent K (half saturation)” value (Lin28 (Lin28A) [7]) was roughly 548 nM.

For GCAGAUUGAGGGUCUAUGAUACCGCAAGGUACAGGAGAUAUCUGCA (structured_RNA) [TL-let-7g GNRA loop], the Kd (Lin28 (Lin28A) [8]) was 0.4 ± 0.2 nM.

With GCAGAUUGAGGGUCUAUGAUACCACCCGGUACAGGAGAUAUCUGCA (structured_RNA, 2-aminopurine at A31) [TL-let-7g 2-AP31] the “apparent K (half saturation)” value (Lin28 (Lin28A) [9]) was 1300 nM.

For GCAGAUUGAGGGUCUAUGAUACCACCCGGUACAGGAGAUAUCUGCA (structured_RNA, 2-aminopurine at A36) [TL-let-7g 2-AP36], the “apparent K (half saturation)” value (Lin28 (Lin28A) [7]) was roughly 548 nM.

For GCAGAUUGAGGGUCUAUGAUACCACCCGGUACAGGAGAUAUCUGCA (structured_RNA, 2-aminopurine at A21) [TL-let-7g 2-AP21], the “apparent K (half saturation)” value (Lin28 (Lin28A) [7]) was 500 nM.

GCAGAUUGAGGGUCUAUGAUACCACCCGGUACAGGAGAUAUCUGCA (structured_RNA) [TL-let-7g]: binds (Lin28 (Lin28A) [1]; [16]); binds (Lin28 119-180 [2]; [16]); binds [10].

GCAGAUUUAGGGCAGAGAUUUUGCCCACAAGGAGUUAUCUGCA (structured_RNA) [TL-let-7d]: binds (Lin28 C139A/C161A [11]); binds (Lin28 (Lin28A) [1]; hairpin); binds (Lin28 119-180 [2]; hairpin).

UCUAUCAAACCACC (ssRNA) [TL13-26V]: no binding (Lin28 (Lin28A) [3]).

For GCCGCGGGGCCUUCGCCGCACACGGCA (structured_RNA) [TL-miR-99b], the Kd (Lin28 (Lin28A) [12]) was 15 nM.

UCUAUGAUACCACC (ssRNA) [TL13-26] showed a Kd (Lin28 (Lin28A) [3]) of roughly 43.3 nM.

With GGUACACCACAUAU (ssRNA) [TL28-41V] the Kd (Lin28 (Lin28A) [3]) was roughly 43.3 nM.

With AGGAGAUAUCUGCA (ssRNA) [TL33-46] the Kd (Lin28 (Lin28A) [3]) was 0.5 ± 0.1 nM and the binding result (Lin28 119-180 [5]) was “no binding”.

GCGACUGUUGAAUCUCAUGGCGCA (structured_RNA) [TL-miR-21a] was tested, and the Kd (Lin28 (Lin28A) [12]) was 13 nM.

B1: duplexbulge (dsRNA)
RNA 1: CGUACAGAUUGAGGGUGACAUCG
RNA 2: CGAUGUCAUAUCUGUACG
With B1 the “apparent K (half saturation)” value (Lin28 C139A/C161A [13]) was 354 nM, the “apparent K (half saturation)” value (Lin28 (Lin28A) [14]) was 58 nM and the “apparent K (half saturation)” value (Lin28 119-180 [15]) was 99 nM.
